Values quoted from earlier work in patent US20200085776A1, “Methods of Reducing C-Reactive Protein and/or Treating Cardiovascular Disease” (CARDAX, INC., priority 2018, published 2020).

How the values were obtained:
[1] = system: vascular events; conditions: 20 mg/D; patients who achieved a reduction in CRP<2.0; cited from earlier work
[2] = molecular target: T1, IL-1β (Homo sapiens, UniProt P01584); conditions: cited from earlier work
T1 construct: host or cells: human trial patients (endogenous IL-1β)

[3] = system: cardiovascular events; conditions: 15-20 mg/week vs. placebo; cited from earlier work
[4] = subjects with a reduction of CRP<2.0 mg/L, regardless of dose

CC(C)c1nc(N(C)S(C)(=O)=O)nc(-c2ccc(F)cc2)c1/C=C/[C@@H](O)C[C@@H](O)CC(=O)O [rosuvastatin]
reduction in vascular events [1]: 62%

canakinumab: monoclonal antibody that targets IL-1β (printed IL-113)
deaths from infection ([2]; active treatment groups, mostly tuberculosis): more deaths from infection
effect on CRP, IL-6 and lipids ([2]; patients with active treatment): a reduction in CRP and IL-6, with no change in lipids
reduction in cardiovascular death and all-cause mortality [2, 4]: 31%
reduction in the primary end point (composite of myocardial infarction, stroke, or cardiovascular death) [2, 4]: 25%

CN(Cc1cnc2nc(N)nc(N)c2n1)c1ccc(C(=O)N[C@@H](CCC(=O)O)C(=O)O)cc1 [methotrexate]
cardiovascular events compared to placebo [3]: did not result in fewer cardiovascular events
effect on levels of IL-1β, IL-6, CRP [3]: did not reduce levels of IL-1β, IL-6, or CRP
